From patent US20150098945A1 (Daiichi Sankyo, published 2015)
Changes are numbered by the printed parent chain.

Key:
[1] = biological target: T1, mouse ROBO4 (pCI-mROBO4-transfected HEK293 cells) (mouse, UniProt Q8C310 28-1012); assay: flow cytometry, HEK293 cells transfected with pCI-mROBO4, anti-mouse IgG FITC; control histogram IgG (Mouse IgG2a)
T1 sequence: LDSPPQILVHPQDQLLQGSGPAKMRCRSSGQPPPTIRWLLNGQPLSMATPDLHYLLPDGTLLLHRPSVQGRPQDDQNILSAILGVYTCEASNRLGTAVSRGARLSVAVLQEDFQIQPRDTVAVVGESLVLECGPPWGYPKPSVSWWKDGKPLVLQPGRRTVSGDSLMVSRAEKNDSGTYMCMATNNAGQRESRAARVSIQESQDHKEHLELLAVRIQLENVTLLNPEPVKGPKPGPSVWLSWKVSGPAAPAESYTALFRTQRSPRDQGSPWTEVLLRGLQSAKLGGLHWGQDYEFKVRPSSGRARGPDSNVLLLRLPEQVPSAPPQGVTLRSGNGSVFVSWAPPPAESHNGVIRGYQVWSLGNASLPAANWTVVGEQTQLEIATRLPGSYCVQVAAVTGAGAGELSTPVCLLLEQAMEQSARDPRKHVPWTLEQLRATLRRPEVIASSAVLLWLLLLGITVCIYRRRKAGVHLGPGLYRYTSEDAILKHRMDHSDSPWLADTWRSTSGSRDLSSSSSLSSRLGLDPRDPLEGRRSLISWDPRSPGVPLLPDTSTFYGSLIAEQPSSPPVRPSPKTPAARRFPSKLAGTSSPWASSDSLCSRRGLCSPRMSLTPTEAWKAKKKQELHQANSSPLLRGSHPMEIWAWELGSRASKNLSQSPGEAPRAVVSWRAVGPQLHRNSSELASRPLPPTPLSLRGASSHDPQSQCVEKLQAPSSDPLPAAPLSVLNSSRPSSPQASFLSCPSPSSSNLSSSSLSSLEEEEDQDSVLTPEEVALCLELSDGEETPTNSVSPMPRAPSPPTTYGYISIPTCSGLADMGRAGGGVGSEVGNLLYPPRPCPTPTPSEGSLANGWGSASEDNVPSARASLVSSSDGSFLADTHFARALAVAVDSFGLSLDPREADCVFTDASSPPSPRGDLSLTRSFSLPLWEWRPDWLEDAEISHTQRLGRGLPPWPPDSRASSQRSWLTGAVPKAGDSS
Experimental: HEK293 cells were inoculated at a concentration of 1.5×10⁶ cells/dish to a 60-mm dish (manufactured by Corning Inc.) and cultured overnight in a DMEM medium containing 10% FBS at 37° C. under 5% CO₂ conditions. On the next day, the HEK293 cells were transfected with pCI-hROBO4, pCI-mROBO4, pCI-raROBO4, pCI-FLAG-cynoROBO4-1, pCI-FLAG-cynoROBO4-2, pCI-hROBO1, pCI-hROBO2, or pCI-hROBO3 using FuGENE6 Transfection Reagent and further cultured overnight at 37° C. under 5% CO₂ conditions. On the next day, the expression vector-transfected cells were treated with TrypLE Express (manufactured by Life Technologies Corp.), washed with PBS containing 5% FBS, and then suspended in PBS containing 5% FBS. The obtained cell suspension was used in flow cytometry analysis.
Each cell suspension prepared in 4)-3-1 was centrifuged, and the supernatant was removed. Then, MAb1 or a negative control Mouse IgG2a was added at a concentration of 10 μg/mL to 2×10⁵ expression vector-transfected cells, and the resulting suspension was left standing at 4° C. for 1 hour. […] Data was analyzed using Flowjo. The histogram of FITC fluorescence intensity was prepared. The antibody was determined to bind in a cross-species manner when the histogram of MAb1 was shifted to a stronger fluorescence intensity region compared with the histogram of the negative control Mouse IgG2a.

[2] = biological target: T1, mouse ROBO4 (pCI-mROBO4-transfected …); assay: flow cytometry (FC500), HEK293 cells transfected with pCI-mROBO4, FITC goat anti-human IgG Fc; control histogram IgG (human IgG)
[3] = biological target: T1, mouse ROBO4 (pCI-mROBO4-transfected …); assay: as above; remark: listed apart in the source

B1: anti-ROBO4 mouse monoclonal antibody MAb1 (antibody, mouse IgG1, V domains shown)
VH: EVQLVESGGGLVKPGGSLKLSCAASGFTFSTYAMSWVRQTPEKRLEWVATISNGGTYTYYPDSVKGRFTISRDNAENTLYLQMSSLRSEDTAMYFCARLIYYDYLDYWGHGTTLTVSS
VL: DAVMTQTPLSLPVSLGDQASISCRSSQSLENSNGNTYLNWYFQKPGQSPQLLIYRVSNRFSGVLDRFSGSGSGTDFTLKISRVEAEDFGVYFCLQVTHVPWTFGGGTKLEIKR
notes: Mouse IgG1 (gamma1), kappa light chain, purified from hybridoma supernatant; also called parent antibody MAb1
Does B1 bind [1]?
Result: no binding (tested: 10 µg/mL)

B2: humanized MAb1 antibody H-2140 (antibody, human IgG2, kappa, V domains shown)
VH: EVQLVESGGGLVQPGGSLRLSCAASGFTFSTYAMSWVRQAPGKRLEWVATISQGGTYTYYPDSVKGRFTISRDNAKNTLYLQMNSLRAEDTAVYYCARLIYYDYLDYWGQGTLVTVSS
VL: DIVMTQSPLSLPVTLGEPASISCRSSQSLENSNGNTYLNWYLQKPGQSPQLLIYRVSNRFSGVPDRFSGSGSGTDFTLKISRVEAEDVGVYYCLQVTHVPWTFGPGTKVDIKR
notes: Human IgG2 / kappa constant regions; also called hMAb1-H4-type heavy chain + hMAb1-L1-type light chain
Does B2 bind [2]?
Result: no binding (tested: 10 µg/mL)

B3: humanized MAb1 antibody H-2143 (antibody, human IgG2, kappa, V domains shown)
VH: B2 VH
VL: B2 VL with S32E, G34K, T36L
notes: Human IgG2 / kappa constant regions; also called hMAb1-H4-type heavy chain + hMAb1-L2-type light chain
Does B3 bind [3]?
Result: no binding (tested: 10 µg/mL)
